The record followed here is patent US11604185B2 (priority 2007, dated 2023).

Where no end group is shown, it is not given here. [ ]: non-standard residue; d: D form. The star is where a group is joined. 5FAM = O=C1OC2(c3ccc(O)cc3Oc3cc(O)ccc32)c2ccc(C(=O)*)cc21; Dabcyl = CN(C)c1ccc(N=Nc2ccc(C(=O)*)cc2)cc1; Nle = CCCC[C@H](N)C(=O)O

Assay [1] deals with BoNT/A holotoxin, complex or the non-toxic LCs. The format is biochemical, Clostridium botulinum.
Assay [2] concerns the target T1, BoNT/A complex (Clostridium botulinum, UniProt P0DPI1). The format is biochemical.
Assay [3] addresses BoNT/A light chain (Clostridium botulinum, UniProt P0DPI0).
Assay [4] concerns the target T2, Trypsin (Sus scrofa, UniProt P00761). The format is biochemical.
For assay [5], the target named is T1, BoNT/A complex.
The target of assay [6] is Thermolysin (Bacillus thermoproteolyticus, UniProt P00800).
The subject of assay [7] is BoNT/A subtypes A1 to A5. The format is biochemical, Clostridium botulinum.
The target in assay [8] is Proteinase K (Parengyodontium album, UniProt P06873). The format is biochemical.
For assay [9], the target named is T2, Trypsin. The format is biochemical. This is another data set of the same source.
Assay [10] concerns the target BoNT/B (Clostridium botulinum, UniProt P10844).

By Km is commonly meant the concentration of substrate that gives half-maximal velocity. What is called kcat is the number of substrate molecules converted per active site and unit of time at saturation.

Chain of BoNT/A light chain (P0DPI0 2-448 limits assumed): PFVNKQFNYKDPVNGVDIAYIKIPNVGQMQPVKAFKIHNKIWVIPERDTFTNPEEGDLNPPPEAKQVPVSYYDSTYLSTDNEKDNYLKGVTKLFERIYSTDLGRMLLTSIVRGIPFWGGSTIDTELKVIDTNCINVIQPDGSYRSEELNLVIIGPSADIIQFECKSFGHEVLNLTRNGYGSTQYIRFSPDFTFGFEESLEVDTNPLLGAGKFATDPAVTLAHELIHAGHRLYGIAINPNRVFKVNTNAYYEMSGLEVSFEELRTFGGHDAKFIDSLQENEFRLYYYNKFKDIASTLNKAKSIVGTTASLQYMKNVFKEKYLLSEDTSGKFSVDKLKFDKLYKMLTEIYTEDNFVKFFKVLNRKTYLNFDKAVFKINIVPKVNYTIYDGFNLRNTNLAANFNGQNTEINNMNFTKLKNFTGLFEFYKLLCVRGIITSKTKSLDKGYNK

In the case of “5FAM-KIDEANQRATK(Dabcyl)[Nle]-NH2 [SEQ ID NO: 14]”, in [1], the “cleavable by BoNT/A holotoxin, complex or non-toxic LCs alone” value is “can be cleaved”.
For `c1ccc(CN(CCN(Cc2ccccn2)Cc2ccccn2)Cc2ccccn2)nc1` [TPEN, N,N,N′,N′-Tetrakis (2-pyridylmethyl) ethylenediamine, reference compound], the “effect on BoNT metalloprotease activity” value in assay [2] was “suppressed BoNT metalloprotease activity”.
On to “Fam-K[5-Fam]IDEANQRATK[DABCYL]Nle-amide [SEQ ID NO: 13]”, for which the “cleavable by BoNT/A holotoxin, complex or non-toxic LCs alone” value in assay [1] is reported as “can be cleaved”.
Same read-out and setting: the entry for “K(5FAM)IDEANQRATK(Dabcyl)[Nle]-NH2 [#201]” is “can be cleaved”.
On to “K[5FAM]-IDEANQRATK[DABCYL]-Hex-CONH2 [#204]”, for which the “cleavage in microcolumn ALISSA” value in assay [3] is listed as “does not cleave the control peptide”.
Turning to “[4-Mu]TRIDEANQRATK[DABCYL] ({4‑Mu}-TRIDEANQRATK; not fully specified (residue 12); also: DABCYL label at C-terminal K, side chain or terminus not clear) [#111]”, the cleavage by trypsin entry in assay [4] was “cleaved by trypsin”. Besides, the “cleavage by BoNT/A complex” value in assay [5] was “not by BoNT/A complex”.
Consider “[4-Mu]TRIDEANQRATK[DABCYL]-Hex ({4‑Mu}-TRIDEANQRATK; not fully specified (residue 12, C-terminus); also: DABCYL label and hexyl (-Hex) at C-terminal K, placement not clear) [#113]”, for which the cleavage by trypsin entry in [4] is listed as “cleaved by trypsin”. Besides, the Michaelis-Menten constant (Km) was found to be 6.45 ± 0.8 µM in assay [6], 4.87 ± 0.96 µM in assay [8] and 13.3 ± 2.7 µM in assay [9]. For the same compound, the kcat in assay [6] came out at 14.66 ± 0.71 s⁻¹; in assay [8], 30.64 ± 2.17 s⁻¹; in assay [9] it was 83.90 ± 8.35 s⁻¹. Further, the “cleaved by BoNT/A subtypes (recombinant LCs)” value in assay [7] is given as “None”. For the same compound, the “cleavage by BoNT/A complex” value in assay [5] is on record as “not by BoNT/A complex”.
As to “[5-Fam]TRIDEANQRATK[DABCYL] (5FAM-TRIDEANQRATK; not fully specified (residue 12); also: DABCYL label at C-terminal K, side chain or terminus not clear) [#110]”, the cleavage by trypsin entry in assay [4] is “cleaved by trypsin”. Moreover, the “cleavage by BoNT/A complex” value in assay [5] is “not by BoNT/A complex”.
In the case of “[5-Fam]TRIDEANQRATK[DABCYL]-Hex (5FAM-TRIDEANQRATK; not fully specified (residue 12, C-terminus); also: DABCYL label and hexyl (-Hex) at C-terminal K, placement not clear) [#112]”, in assay [10], the “cleavage by BoNT/B serotype” value is listed as “not cleaved”. Besides, the cleavage by trypsin entry in assay [4] is on record as “cleaved by trypsin”. In addition, in assay [6], the Michaelis-Menten constant (Km) is 3.58 ± 0.76 µM and the kcat came out at 24.26 ± 1.72 s⁻¹. Moreover, the “cleaved by BoNT/A subtypes (recombinant LCs)” value in assay [7] is listed as “None”. In assay [8], the Michaelis-Menten constant (Km) came out at 3.37 ± 0.67 µM and the kcat turned out to be 50.73 ± 3.28 s⁻¹. In addition, in [5], the “cleavage by BoNT/A complex” value is on record as “not by BoNT/A complex” and the “cleavage by BoNT/A serotype” value is recorded as “not cleaved”. Also, in [9], the Michaelis-Menten constant (Km) was 3.75 ± 0.79 µM and the catalytic constant (kcat) came out at 58.72 ± 4.17 s⁻¹. Moreover, the “cleavage upon addition of increasing concentrations of BoNT/A complex” value in [2] was “only little cleavage”.
